In the RNAGym collection of RNA variant scans (doi:10.7554/elife.80360) one finds self-cleavage data, which are given here for 167 variants.

B1: Hairpin Ribozyme (parent)
chain: GUCCUCUUUCACGUGCGCGUGAAAGAGAGAAGUGAACCAGAGAAACACACGUUGUGGUAUAUUACCUGGUA

In this data set the parent is B1. Briefly: self-cleavage, relative activity (ratio to wild type); higher = more cleavage; co-transcriptional.
For A49C U58A, the self-cleavage worked out at 0.082.
Take U52C A61G: the self-cleavage is 0.253.
For U52C A61C, the self-cleavage was 0.263.
Consider U52C A61U, for which the self-cleavage came to 0.226.
In the case of U52A U53G it was 1.01.
For the variant U52A U53A, the self-cleavage stood at 0.817.
Consider U52C C65G, for which the self-cleavage came out at 0.426.
The value for G51A G57U was 0.299; that for A49C U62C was 0.22; that for C48U U70G was 0.211.
For the variant C48U U70A, the self-cleavage amounted to 0.152.
As for U53C A59G, the self-cleavage worked out at 0.303.
Take A49G C66A: the self-cleavage was found to be 0.302.
On to A49G C66G, for which the self-cleavage amounted to 0.192.
The value for C48G A71C was 0.231.
Consider C48G A71U, for which the self-cleavage was determined as 0.14.
For U53C C66G, the self-cleavage turned out to be 0.328.
As for G51A U52A, the self-cleavage is 1.15.
Turning to U52G G68A, the self-cleavage was 0.407.
Consider C50U U70A, for which the self-cleavage is 0.266.
On to U53C U63C, for which the self-cleavage amounted to 0.0362.
With U53C U63G, the self-cleavage was 0.144.
With U53C U63A, the self-cleavage came to 0.177.
On to U52C U58A, for which the self-cleavage was 0.67.
Turning to G51U U53G, the self-cleavage was determined as 0.707.
The value for U53A U63G was 0.249; that for U53A U63A was 0.153.
Turning to G51U C66U, the self-cleavage was 0.599.
The value for C48G A61G was 0.131; that for C48G A61C was 0.0868.
As to C48G U55A, the self-cleavage is 0.148.
Turning to G51C G54A, the self-cleavage is 0.136.
Consider U53A G54C, for which the self-cleavage amounted to 0.472.
For the variant U53A G54U, the self-cleavage is 0.609.
The value for U53A U60C was 1.31; that for C50U G57A was 0.112; that for C50U G68C was 0.246.
In the case of U52A U62G it was 0.0279; in that of U52A U62C, 0.187.
As for U52C G69C, the self-cleavage stood at 0.313.
In the case of A49C U63C it was 0; in that of G51C U62G, 0.184.
The value for G51C U62A was 0.141; that for C48G U63G was 0.0813; that for U52A U55G was 0.372.
Consider C50A G51A, for which the self-cleavage came to 0.288.
As to C50A G51C, the self-cleavage is 0.36.
With C48A U70G, the self-cleavage amounted to 0.144.
For C48A U70A, the self-cleavage was 0.209.
As for U53A U58C, the self-cleavage was found to be 0.574.
The value for C50A U52C was 0.31; that for C50A U52A was 0.293; that for C50A U52G was 0.361.
Take A49G G68A: the self-cleavage was determined as 0.147.
U52C G54A: the self-cleavage came to 0.568.
As to C50A A71U, the self-cleavage was 0.227.
Take C50A A71C: the self-cleavage was 0.816.
As for U52C U60G, the self-cleavage was found to be 0.55.
As to U52C U60C, the self-cleavage amounted to 1.16.
As for U53A C66G, the self-cleavage was found to be 0.247.
Turning to C50A C65U, the self-cleavage stood at 0.179.
Turning to A49U C65A, the self-cleavage was determined as 0.188.
With A49C G68C, the self-cleavage worked out at 0.15.
A49C G68U: the self-cleavage is 0.118.
The value for A49C G68A was 0.164; that for G51A U70G was 0.792.
In the case of G51U G54U it was 0.508; in that of G51U G54A, 0.72.
For the variant U53A A71G, the self-cleavage stood at 1.07.
As for G51C G57C, the self-cleavage amounted to 0.152.
In the case of G51A A64G it was 0.666; in that of G51A A61C, 0.0891.
Turning to C48U U62C, the self-cleavage was found to be 0.118.
As for C48U U62A, the self-cleavage is 0.201.
In the case of C48G A59G, the self-cleavage was found to be 0.129.
In the case of A49G U52C, the self-cleavage was found to be 0.502.
In the case of A49G U52G, the self-cleavage was 0.371.
A49G U52A: the self-cleavage was 0.614.
U52A U60C: the self-cleavage turned out to be 1.42.
Take U52A U60A: the self-cleavage worked out at 0.988.
For the variant C50U A64G, the self-cleavage amounted to 0.216.
A49U C50A: the self-cleavage was found to be 0.293.
As to A49U C50G, the self-cleavage stood at 0.193.
Consider C48G U52C, for which the self-cleavage amounted to 0.218.
In the case of C48G U52A, the self-cleavage was 0.135.
Take U53A G69A: the self-cleavage is 0.484.
Consider A49U U70A, for which the self-cleavage came to 0.237.
Consider C48G C66U, for which the self-cleavage stood at 0.156.
As for A49U G56A, the self-cleavage came out at 0.136.
Regarding A49U U62A, the self-cleavage stood at 0.186.
Take U53A G57C: the self-cleavage is 0.145.
As for C50A U58G, the self-cleavage was found to be 0.242.
For U53A U67A, the self-cleavage turned out to be 0.109.
For the variant U53A U67G, the self-cleavage was 0.385.
As to C50A U60G, the self-cleavage turned out to be 0.248.
As to U52G U60G, the self-cleavage worked out at 0.298.
With U52G U60A, the self-cleavage turned out to be 0.4.
The value for U52A G68C was 0.231; that for U52A G54A was 0.621; that for C50G C65A was 0.463.
For the variant A49C U55A, the self-cleavage worked out at 0.164.
Turning to C50G G69U, the self-cleavage was 0.156.
As for U52C A64U, the self-cleavage was 0.331.
Regarding U52C U53A, the self-cleavage is 1.07.
In the case of C48U U63C it was 0.19; in that of C48U U63G, 0.163; in that of A49C C65U, 0.08.
As for C50U U52G, the self-cleavage worked out at 0.318.
Consider G51A G56U, for which the self-cleavage came to 0.166.
Turning to G51A C66U, the self-cleavage is 0.574.
In the case of U52G C66G, the self-cleavage came to 0.215.
In the case of G51U U52C it was 1.
C48G U70A: the self-cleavage turned out to be 0.144.
With C48G U70G, the self-cleavage is 0.0256.
The value for U52G A61C was 0.147; that for C50A G69A was 0.152.
For G51C U58A, the self-cleavage was determined as 0.653.
In the case of C48G G56A, the self-cleavage was 0.124.
On to C48G G56C, for which the self-cleavage was 0.922.
Regarding U53C U58G, the self-cleavage came out at 0.948.
The value for C48U G57A was 0.147.
A49U G54U: the self-cleavage was determined as 0.36.
For the variant U52G G54C, the self-cleavage was 0.42.
Turning to U52G G54A, the self-cleavage was 0.375.
The value for U52G G54U was 0.417; that for U53A C65G was 0.28.
Turning to U53A C65U, the self-cleavage turned out to be 0.241.
In the case of U53A C65A it was 0.901; in that of C48G C50A, 0.0785; in that of C48G C50U, 0.177.
Consider C48G C50G, for which the self-cleavage was 0.137.
Consider G51C U70A, for which the self-cleavage came out at 0.898.
In the case of G51C U70C, the self-cleavage turned out to be 1.01.
For the variant G51C U63G, the self-cleavage was 0.0973.
The value for G51C U63A was 0.199.
G51U U55A: the self-cleavage stood at 0.302.
Take G51U U55C: the self-cleavage came out at 0.245.
For the variant U52G U53C, the self-cleavage amounted to 1.
Regarding C48U G56U, the self-cleavage stood at 0.231.
As for C48U A59G, the self-cleavage worked out at 0.121.
On to C48U A59C, for which the self-cleavage is 0.222.
Turning to U52C U62G, the self-cleavage was 0.0331.
For C50U U53C, the self-cleavage turned out to be 0.261.
C50U U53G: the self-cleavage turned out to be 0.242.
Turning to C50U G69U, the self-cleavage was 0.128.
U53A G68C: the self-cleavage stood at 0.249.
In the case of U53A G68A, the self-cleavage was found to be 0.279.
On to U53A G68U, for which the self-cleavage worked out at 0.2.
In the case of C50G G68A it was 0.132.
As for A49U A61G, the self-cleavage came out at 0.13.
Regarding A49U A61U, the self-cleavage came out at 0.108.
On to C48G U62A, for which the self-cleavage was determined as 0.0564.
U53A G56U: the self-cleavage turned out to be 0.105.
On to U52G G69A, for which the self-cleavage is 0.263.
Take A49G U67C: the self-cleavage was determined as 0.125.
As to A49G U67G, the self-cleavage is 0.195.
With A49U G51A, the self-cleavage worked out at 0.209.
With A49U G51C, the self-cleavage worked out at 0.166.
Regarding A49G G56U, the self-cleavage was determined as 0.261.
On to U53C A64G, for which the self-cleavage was determined as 0.616.
Turning to A49C A61G, the self-cleavage is 0.172.
As to G51A U53G, the self-cleavage worked out at 0.765.
In the case of G51A U53A it was 0.869.
For the variant U53C G54U, the self-cleavage is 0.573.
In the case of U53C G54C it was 0.546; in that of C50U G51C, 0.256.
For G51A C65U, the self-cleavage came to 0.151.
